Values of other authors as cited in article PMC12874384.

How the values were obtained:
[1] = tested on: Glu165; assay: kinetics (competitive inhibition, pH dependence of Ki); details: enzyme•PGA trianion complex (closed, inhibitor-bound)
[2] = molecular target: Glu165 (UniProt position 165, VVLAYEPVWAI); assay: as above; details: enzyme•PGA trianion complex (closed, inhibitor-bound)
[3] = molecular target: Glu165 (UniProt position 165, VVVAYEPVWAI); assay: as above; details: enzyme•PGA trianion complex (closed, inhibitor-bound)
[4] = molecular target: Asp260 (UniProt position 260, SCGVADLITTC); assay: kinetics (pH-rate profile); details: kcat/Km profile for reaction of DHAP dianion in the presence of NADH
[5] = molecular target: T1, Lys204 (UniProt position 204, ICGALKNVVAV); assay: kinetics (pH-rate profile); details: kcat/Km profile for reaction of DHAP dianion in the presence of NADH
[6] = molecular target: T1, Lys204; assay: kinetics (pH-rate profile of chemical rescue); details: K120A variant with EtNH3+ activator, DHAP and NADH

**Q.** With “Triosephosphate isomerase, Trypanosoma brucei brucei (TbbTIM) (Trypanosoma brucei brucei)” as the substance, how does the pKa [1] read?
**A.** ≈ 11

**Q.** Which pKa [1] does the source give for “TbbTIM P166A variant (P168A in TbbTIM numbering) (Trypanosoma brucei brucei; P166A)” here?
**A.** 9.3

**Q.** For “TbbTIM I170A variant (I172A in TbbTIM numbering) (Trypanosoma brucei brucei; I170A)”, which pKa [1] is on record?
**A.** 7.7

**Q.** With “Triosephosphate isomerase, chicken (cTIM) (Gallus gallus)” as the substance, how does the pKa [2] read?
**A.** ≈ 11

**Q.** For “Triosephosphate isomerase, yeast (yTIM) (Saccharomyces cerevisiae)”, which pKa [3] is on record?
**A.** ≈ 11

**Q.** For “cTIM loop 7 replacement variant (L7RM, 208-TGAG-211) (Gallus gallus; Y208T;G210A;S211G)”, which pKa [2] is on record?
**A.** 6.7

**Q.** Which pKa [3] does the source give for “yTIM Y208F variant (Saccharomyces cerevisiae; Y208F)” here?
**A.** 6.3

**Q.** Which results are given for “Glycerol 3-phosphate dehydrogenase [NAD+], human liver (hlGPDH) (Homo sapiens)”?
**A.** pKa [4]: 4.4; pKa [5]: 7.6

**Q.** For “yTIM S211A variant (Saccharomyces cerevisiae; S211A)”, which pKa [3] is on record?
**A.** 8.2

**Q.** For “TbbTIM P166A/I170A double variant (P168A/I172A in TbbTIM numbering) (Trypanosoma brucei brucei; P166A;I170A)”, which pKa [1] is on record?
**A.** 7.8

**Q.** With “hlGPDH K120A variant (Homo sapiens; K120A)” as the substance, how does the pKa [4] read?
**A.** 5.0

**Q.** And the pKa [5]?
**A.** 7.6

**Q.** What about the pKa [6] of the same substance?
**A.** 7.7
